Reference: PMC5392571, “A model for the conformational activation of the structurally quiescent metalloprotease ADAMTS13 by von willebrand factor” (The Journal of Biological Chemistry, 2017)

T1: WT MDTCS (ADAMTS13 residues 1–685) (human, UniProt Q76LX8 30-685)
T1 construct: signal peptide in the construct; ADAMTS13, human, residues 1-685 (metalloprotease, disintegrin-like, TSP1, cysteine-rich and spacer domains); In pCEP4; also called truncated ADAMTS13 variant MDTCS; source: HEK293S cells, purified; not shown: His6, C-terminal, kept
T1 sequence (looked up): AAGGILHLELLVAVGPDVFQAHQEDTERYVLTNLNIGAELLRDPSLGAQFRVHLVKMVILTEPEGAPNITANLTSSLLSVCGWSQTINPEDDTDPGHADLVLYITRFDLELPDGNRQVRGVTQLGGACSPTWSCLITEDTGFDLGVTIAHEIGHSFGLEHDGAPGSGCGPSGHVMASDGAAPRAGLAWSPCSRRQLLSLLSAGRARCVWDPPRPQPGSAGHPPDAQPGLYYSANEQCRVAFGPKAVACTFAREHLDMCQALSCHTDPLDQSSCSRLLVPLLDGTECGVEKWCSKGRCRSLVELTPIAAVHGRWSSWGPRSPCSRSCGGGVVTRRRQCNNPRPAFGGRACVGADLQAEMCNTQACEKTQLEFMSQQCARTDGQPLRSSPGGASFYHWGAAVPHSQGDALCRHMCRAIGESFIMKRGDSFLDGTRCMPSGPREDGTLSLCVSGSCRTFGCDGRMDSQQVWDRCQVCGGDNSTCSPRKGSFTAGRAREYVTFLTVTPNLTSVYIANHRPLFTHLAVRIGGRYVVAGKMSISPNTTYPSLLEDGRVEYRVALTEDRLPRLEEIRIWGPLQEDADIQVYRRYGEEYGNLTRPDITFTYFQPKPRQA


Key:
[1] = target: T2, dimeric VWF D4-CK domain fragment (VWF residues 1874–2813) (UniProt P04275 1874-2813); assay: SPR; BIAcore T100, CM5 chip; ADAMTS13, its truncation variants or CUB fragments immobilised, VWF D4-CK as analyte; 10 mM HEPES, 150 mM NaCl, pH 7.4, 0.0034 mM EDTA, 0.005% Tween 20; global analysis; conditions: both partners purified
T2 construct: von Willebrand factor, residues 1874-2813 (D4 to CK domains); source: HEK293S, transiently expressed, purified by FPLC

[2] = target: T1, WT MDTCS (ADAMTS13 residues 1–685); assay: SPR; BIAcore T100, CM5 chip; 10 mM HEPES, 150 mM NaCl, pH 7.4, 0.0034 mM EDTA, 0.005% Tween 20; the text says MDTCS variants were immobilised, the legend of Fig. 1 says the CUB fragments were; global analysis; conditions: both partners purified

Row | Binder | Kd [1] [nM] | Kd [2] [nM]
1 | CUB1-2 domain fragment (ADAMTS13 residues 1192–1427) (domain or fragment, human, UniProt Q76LX8 1192-1427, looked up, ADAMTS13, human, residues 1192-1427 (CUB1 and CUB2 domains); Generated by inverse PCR from the full-length ADAMTS13 construct (C-terminal Myc/His6); source: HEK293S cells, purified) CGRQHLEPTGTIDMRGPGQADCAVAIGRPLGEVVTLRVLESSLNCSAGDMLLLWGRLTWRKMCRKLLDMTFSSKTNTLVVRQRCGRPGGGVLLRYGSQLAPETFYRECDMQLFGPWGEIVSPSLSPATSNAGGCRLFINVAPHARIAIHALATNMGAGTEGANASYILIRDTHSLRTTAFHGQQVLYWESESSQAEMEFSEGFLKAQASLRGQYWTLQSWVPEMQDPQSWKGKEGT | 51.8 | 55.6
2 | CUB1 domain fragment (ADAMTS13 residues 1192–1298) (domain or fragment, human, UniProt Q76LX8 1192-1298, looked up, ADAMTS13, human, residues 1192-1298 (CUB1 domain); Generated by inverse PCR from the full-length ADAMTS13 construct (C-terminal Myc/His6); detected by anti-His6 in the co-IP; also called isolated CUB1 fragment; source: HEK293S cells, purified) CGRQHLEPTGTIDMRGPGQADCAVAIGRPLGEVVTLRVLESSLNCSAGDMLLLWGRLTWRKMCRKLLDMTFSSKTNTLVVRQRCGRPGGGVLLRYGSQLAPETFYRE | 53.7 | 135
3 | CUB2 domain fragment (ADAMTS13 residues 1299–1427) (domain or fragment, human, UniProt Q76LX8 1299-1427, looked up, ADAMTS13, human, residues 1299-1427 (CUB2 domain); Generated by inverse PCR from the full-length ADAMTS13 construct (C-terminal Myc/His6); detected by anti-His6 in the co-IP; also called isolated CUB2 fragment; source: HEK293S cells, purified) CDMQLFGPWGEIVSPSLSPATSNAGGCRLFINVAPHARIAIHALATNMGAGTEGANASYILIRDTHSLRTTAFHGQQVLYWESESSQAEMEFSEGFLKAQASLRGQYWTLQSWVPEMQDPQSWKGKEGT | 84.3 | 86.9
